Columns and labels:
[1] = tested on: FLT3 (wt, ITD, TKD) in FL−/− MEF cells; assay: FL stimulation, FLT3 phosphorylation in FL−/− MEF cells expressing wtFLT3, FLT3/ITD, FLT3/TKD; assay type: cell-based, mice
Experimental: Embryos were removed from female FL^−/− mice (purchased from Taconic, Hudson, N.Y.) on day 13 or 14 of pregnancy. Internal organs and heads were removed. The remainder of the embryos were washed, minced, digested with Trypsin/EDTA, and then resuspended in DMEM containing 10% FBS followed by centrifuging at 1000×g for 5 minutes. The cell pellet was resuspended in DMEM containing 10% FBS and cultured at 37° C. with 5% CO2. After 3 passages, the cells were transfected with CMV-SV40-large T antigen to immortalize FL^−/− MEF cells. The FL^−/− MEF cells represent bulk cells after transformation.
Retrovirus was obtained by harvesting supernatant 48 hours after transfection of 293T cells with pBabePuro constructs. […]
To eliminate the complicating factor of autocrine, paracrine, and intracrine FL expression on mutant FLT3 activation, FL^−/− MEF cells were established from FL^−/− mice. […] The addition of FL induced more than a 4-fold increase in FLT3 phosphorylation in FL^−/− MEF-FLT3, FL^−/− MEF-ITD, and FL^−/− MEF-TKD cells (quantitated by GS-800 Calibrated Densitometer (Bio-Rad) and Quantity One software (Bio-Rad)) (FIG. 10B, lanes 4, 6, and 8 versus lanes 3, 5, and 7). […]
The effect of endogenous FL expression on the activation of FLT3/ITD and FLT3/TKD mutant receptors were next examined. […] The expression of FL was assessed by the detection of the secreted form of FL in the cell culture supernatant. […]

[2] = tested on: STAT5 and AKT phosphorylation; assay: FL stimulation, downstream signaling immunoblot in TF1/ITD and TF1/TKD cells; assay type: cell-based
Experimental: (§1) TF1 and BaF3 cells were transfected with pCINeo constructs containing either FLT3/ITD or FLT3/TKD mutation by electroporation (Bio-Rad, Hercules, Calif.). Stable transfectants were then selected by limiting dilution in 96-well plates with 1 mg/mL G418 (Invitrogen, Carlsbad, Calif.).
The possibility of further activation of FLT3 mutant receptors by exogenous FL was also tested in cell lines in which FL autocrine, paracrine, or intracrine stimulation of FLT3 receptor might exist. […] TF1 cells expressing FLT3 mutant receptors were starved for 16 hours in serum-free medium and washed once with PBS to deplete soluble FL (either produced by the cells or contained in the serum). These cells were then stimulated with exogenous FL for 15 minutes. More than 2-fold enhancement of FLT3 phosphorylation was detected in both TF1/ITD and TF1/TKD cell lines (FIG. 12A). […] To assess the functional effect of exogenous FL, TF1/ITD and TF1/TKD cells were cultured in serum-free medium in the absence and presence of FL for 48 hours. Apoptosis was assessed by Annexin V and 7AAD staining followed by FACS analysis. […] There was no change of cell cycle status in response to FL in these cells (data not shown).

[3] = tested on: FLT3/ITD and FLT3/TKD in BaF3 cells; assay: FL stimulation, FLT3 phosphorylation in BaF3/ITD and BaF3/TKD cells; assay type: cell-based
Experimental: as §1
(§2) BaF3 is another cell line lacking expression of endogenous FLT3. BaF3 cells transfected with mutant forms of FLT3 were starved in serum-free medium for 16 hours and washed with PBS before FL stimulation. […] Changes of other FLT3 downstream signals were not observed. An MTT survival assay was performed in BaF3/ITD and BaF3/TKD cells cultured in serum-free medium in the presence and absence of FL for 4 days. […] The effect was also confirmed by counting viable cell numbers by trypan blue exclusion (FIG. 13C, P<0.05). These findings indicate that FL stimulation prolongs the survival of cells expressing FLT3 mutants.

[4] = tested on: BaF3/ITD and BaF3/TKD cells; assay: Survival (MTT, trypan blue) of BaF3/ITD and BaF3/TKD cells with FL; assay type: cell-based; conditions: serum-free, 4 days
Experimental: (§3) 2×10^4 cells in 100 μl serum-free medium were plated into triplicate wells of 96-well plates. Survival was assessed by MTT assay (Roche, Indianapolis, Ind.) and viable cell number counting by trypan blue (GIBCO, Rockville, Md.) exclusion according to the manufacturer's instructions.
as §2

MV411 cells = assay: Survival (MTT) of MV411 cells with FL; assay type: cell-based, human; conditions: MV411, serum-free, 4 days
Experimental: as §3
The MV411 cell line is a human leukemia-derived cell line expressing a FLT3/ITD mutation and has lost the wild-type allele. […] MV411 cells express endogenous FL that might diminish the degree of the effect of exogenous FL on FLT3/ITD mutant receptor. To evaluate the effect of FL on the survival of MV411 cells, MV411 cells were cultured in serum-free medium in the presence and absence of FL for 4 days.

MAPK phosphorylation = assay: FL stimulation, MAPK phosphorylation in primary AML blasts with homozygous FLT3/ITD; assay type: cell-based, human; conditions: 100 ng/mL FL
Experimental: To study whether further activation of mutant FLT3 receptors in response to FL also occurs in primary cells, experiments were carried on primary AML blasts expressing homozygous FLT3/ITD mutations (i.e., no detectable wild type FLT3 by PCR). The blasts were stimulated with 100 ng/mL FL. […] The survival of AML blasts was assessed by culturing them in complete medium with and without FL for 4 days.

B1: FL: Recombinant human FL (fms-related tyrosine kinase ligand) purchased from PeproTech; SEQ ID NO: 1 (protein, listed as Homo sapiens)
chain: MTVLAPAWSPTTYLLLLLLLSSGLSGTQDCSFQHSPISSDFAVKIRELSDYLLQDYPVTVASNLQDEELCGGLWRLVLAQRWMERLKTVAGSKMQGLLERVNTEIHFVTKCAFQPPPSCLRFVQTNISRLLQETSEQLVALKPWITRQNFSRCLELQCQPDSSTLPPPWSPRPLEATAPTAPQPPLLLLLLLPVGLLLLAAAWCLHWQRTRRRTPRPGEQVPPVPSPQDLLLVEH
Question: For B1, which “increase in FLT3 phosphorylation” value ([1]; FL−/− MEF-FLT3, MEF-ITD and MEF-TKD cells, serum-free, FL 100 ng/mL 15 minutes) is on record?
Answer: The value was greater than 4 fold.

Question: What about the “FLT3 phosphorylation in cells expressing endogenous FL” value ([1]; exogenous FL 100 ng/mL, MEF-FLT3, MEF-ITD, MEF-TKD cells stably expressing FL) of the same molecule?
Answer: The value was “did not further augment”.

Question: And the “AKT phosphorylation and AKT protein expression” value ([2]; TF1/ITD and TF1/TKD after FL stimulation)?
Answer: The value was “Slightly increased”.

Question: And the STAT5 phosphorylation increase ([2]; both TF1/ITD and TF1/TKD)?
Answer: The STAT5 phosphorylation increase was 1.8 fold.

Question: And the FLT3 phosphorylation [3]?
Answer: The FLT3 phosphorylation was “increased FLT3 phosphorylation”.

Question: What about the “survival (MTT, confirmed by trypan blue)” value [4] of the same molecule?
Answer: The value was “increased survival”.

Question: What about the survival (MV411 cells) of the same molecule?
Answer: The survival was “prolonged survival”.

Question: And the “samples with increased MAPK phosphorylation” value (MAPK phosphorylation)?
Answer: The value was “two out of four samples”.
